Molecular target: T1, ERα (purified) (UniProt P03372)
T1 sequence: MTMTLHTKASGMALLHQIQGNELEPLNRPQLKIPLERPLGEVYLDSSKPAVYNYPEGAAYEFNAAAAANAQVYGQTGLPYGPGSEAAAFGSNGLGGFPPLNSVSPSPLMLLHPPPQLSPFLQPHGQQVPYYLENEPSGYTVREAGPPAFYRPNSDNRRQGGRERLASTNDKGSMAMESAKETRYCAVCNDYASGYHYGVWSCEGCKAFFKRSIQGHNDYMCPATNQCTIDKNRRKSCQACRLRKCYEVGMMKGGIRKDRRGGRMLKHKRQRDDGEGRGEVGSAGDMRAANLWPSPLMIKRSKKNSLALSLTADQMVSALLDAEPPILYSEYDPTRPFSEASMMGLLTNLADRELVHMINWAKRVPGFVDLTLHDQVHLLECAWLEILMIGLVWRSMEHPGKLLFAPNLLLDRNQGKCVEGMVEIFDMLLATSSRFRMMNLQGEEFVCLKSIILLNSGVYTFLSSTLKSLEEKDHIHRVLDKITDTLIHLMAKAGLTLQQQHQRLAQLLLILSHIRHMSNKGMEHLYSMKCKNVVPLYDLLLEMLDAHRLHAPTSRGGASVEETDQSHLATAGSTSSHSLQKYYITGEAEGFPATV
Assay: EMSA (1% agarose, ethidium bromide)
Conditions: EMSA: 0.1 M KCl, 1 mM DTT, 1 mM MgCl2, 10 mM HEPES pH 7.6, 37 °C, 30 min; pull-down: lysate in 5 mM PIPES, 85 mM KCl, 0.5% NP-40, 2 mM PMSF, 4 °C overnight …

## AACGGAGTGTAGTCGGCTGACCCCTAGCATAGAGCAGTGCTGTTGGCTACTAACCACACCTCTCTACCTCTTTCTTACTCTAATATTACCCACCACAACAGCCAGAAAGTTCTTTTGAGAACATCTATCTGATCATGACACTGTCTTACTTAAAATCTTCCAGTGACTACTATTACCCTTAGGGTAGTCCAGATTCCATAATGTGGTTTACTGGACTCTATGACTTCTAAGAGAAGTCTTAGAGT (double strand) [YB-1 promoter]
  binding: binds

Reference: publication PMC7069074
